Assay [1] concerns the target MpIBP_RIII1-4 (Marinomonas primoryensis ice-binding protein, Region III domains 1-4), truncated construct ending at N507 (Marinomonas primoryensis). Nature of the assay: fluorescence polarisation.
Assay [2] has the same target. Nature of the assay: fluorescence polarisation. This is another data set of the same source.
For assay [3] the target is unchanged. Kind of assay: ITC.

Where two headings read alike, the source gives them in different places. Where no end group is shown, it is not given here. [ ]: non-standard residue; d: D form. The star is where a group is joined. FITC = O=C1OC2(c3ccc(O)cc3Oc3cc(O)ccc32)c2ccc(NC(=S)*)cc21; pT = C[C@@H](OP(=O)(O)O)[C@H](N)C(=O)O; pS = N[C@@H](COP(=O)(O)O)C(=O)O; Aβ = not defined here

For {FITC}-AGAGF [FITC-AGAGF], the concentration giving a half-maximal response (EC50) in assay [1] was 7200 nM.
Molecule {FITC}-AGAPD [FITC-AGAPD] had an EC50 in assay [2] of 4600 nM.
With AGYTS [AGYTS (unlabelled peptide)], in assay [3], the Kd is 59 nM and the stoichiometry N amounted to 1.
The corresponding values for AGYTD [AGYTD (unlabelled peptide)] are 67 nM and 1.
Molecule {FITC}-AGAFD [FITC-AGAFD] came in with an EC50 in assay [2] of 180 nM.
In the case of {FITC-Aβ}-GPDD (reading uncertain; also: printed as FITC-AβGPDD) [FITC-AβGPDD], the fold by which FITC-AβGPDSD binds stronger than FITC-AβGPDD in assay [1] was found to be 20 fold.
The molecule {FITC}-IKARAS[pS]SPVILVGTHLD-OH [FITC-IKARAS(pS)…] displayed an EC50 in assay [1] of 2700 nM.
Regarding {FITC-Aβ}-GPDSN (reading uncertain; also: printed as FITC-AβGPDSN) [FITC-AβGPDSN], the concentration for a half-maximal effect (EC50) in assay [1] came to 270 nM.
As to {FITC-Aβ}-DSTPD (reading uncertain; also: printed as FITC-AβDSTPD) [FITC-AβDSTPD], in assay [1], the concentration for a half-maximal effect (EC50) turned out to be 27000 nM and the affinity worked out at 26 µM.
For {FITC}-AGYTS [FITC-AGYTS], the EC50 in assay [1] was 30 nM.
As for {FITC}-AGAGD [FITC-AGAGD], the EC50 is 3200 nM in assay [1] and 1500 nM in assay [2].
In assay [1], {FITC}-AGYTD [FITC-AGYTD] registered a 50% effective concentration (EC50) of 29 nM.
Same read-out and setting: then {FITC-Aβ}-DSTD (reading uncertain; also: printed as FITC-AβDSTD) [FITC-AβDSTD], with 110 nM.
Still for that read-out and setting: then {FITC}-AGCTD [FITC-AGCTD], with 23 nM; and {FITC}-AGAGY [FITC-AGAGY], with 4600 nM.
The same measure, in the same setting: then {FITC}-AGWTD [FITC-AGWTD], with 23 nM; and {FITC}-RHKKLMFK[pT]EGPDSD-OH [FITC-RHKKLMFK(pT)EGPDSD], with 690 nM.
As to {FITC}-AGATD [FITC-AGATD], the concentration giving a half-maximal response (EC50) in assay [1] was determined as 72 nM; in assay [2], 89 nM.
As for AGAGD [AGAGD (unlabelled peptide)], in assay [3], the Kd came out at 1900 nM and the stoichiometry N was 1.
As for {FITC}-AGAYD [FITC-AGAYD], the EC50 in assay [2] is 170 nM. In other words, the sub-micromolar range.
On to {FITC}-AGAGI [FITC-AGAGI], for which, in assay [1], the EC50 stood at 4400 nM.
Turning to {FITC}-AGASD [FITC-AGASD], the EC50 in assay [2] was 310 nM.
In assay [1], {FITC-Aβ}-GPDSD (reading uncertain; also: printed as FITC-AβGPDSD) [FITC-AβGPDSD] gave an EC50 of 160 nM.
In assay [3], AGATD [AGATD (unlabelled peptide)] gave a Kd of 86 nM and a stoichiometry N of 1.

Values taken from paper doi:10.1101/2020.11.18.389114.
